# Assay results as given in patent US20240132563A1.
# What was measured:
# Experiment in all cases: cell-based or functional assay
# [1] = target: IL-18 polypeptide of SEQ ID NO: 48 (C38S, C68S, C76S, C127S, K70C) (human) (UniProt Q14116)
# [2] = target: IL-18 polypeptide of SEQ ID NO: 46 (E06K, K53A, S55A, M51G) (human) (UniProt Q14116)
# [3] = target: IL-18 polypeptide of SEQ ID NO: 5 (E6K, V11I, C38A, K53A, T63A, C68A, C76A, M86C, C127A) (human) (UniProt Q14116)
# [4] = target: IL-18 polypeptide of SEQ ID NO: 47 (C38S, C68S, C76S, C127S) (human) (UniProt Q14116)
# [5] = target: IL-18 polypeptide C151 (V11I, D35A, C38A, K53A, C76A, C127A) (human) (UniProt Q14116)
# [6] = target: IL-18 polypeptide of SEQ ID NO: 38 (E06K) (human) (UniProt Q14116)
# [7] = target: IL-18 polypeptide of SEQ ID NO: 37 (S55A) (human) (UniProt Q14116)
# [8] = target: IL-18 polypeptide of SEQ ID NO: 41 (K53A, S55A) (human) (UniProt Q14116)
# [9] = target: IL-18 polypeptide C158 (V11I, C38A, K53A, C76A, G108A, C127A) (human) (UniProt Q14116)
# [10] = target: IL-18 polypeptide of SEQ ID NO: 42 (E06K, K53A, S55A, T63A) (human) (UniProt Q14116)
# [11] = target: IL-18 polypeptide C150 (V11I, T34A, C38A, K53A, C76A, C127A) (human) (UniProt Q14116)
# [12] = target: IL-18 polypeptide of SEQ ID NO: 36 (K53A) (human) (UniProt Q14116)
# [13] = target: IL-18 polypeptide C153 (V11I, D37A, C38A, K53A, C76A, C127A) (human) (UniProt Q14116)
# [14] = target: IL-18 polypeptide C156 (V11I, C38A, N41A, K53A, C76A, C127A) (human) (UniProt Q14116)
# [15] = target: IL-18 polypeptide C160 (V11I, C38A, K53A, C76A, D110A, C127A) (human) (UniProt Q14116)
# [16] = target: IL-18 polypeptide of SEQ ID NO: 35 (Y01G, F02A, E06K, M51G, K53A, D54A, S55A, T63A) (human) (UniProt Q14116)
# [17] = target: IL-18 polypeptide C144 (V11I, C38A, K53A, T63A, C76A, C127A) (human) (UniProt Q14116)
# [18] = target: IL-18 polypeptide of SEQ ID NO: 4 (E6K, C38A, K53A, C68A, M86C) (human) (UniProt Q14116)
# [19] = target: IL-18 polypeptide C159 (V11I, C38A, K53A, C76A, H109A, C127A) (human) (UniProt Q14116)
# [20] = target: IL-18 polypeptide of SEQ ID NO: 40 (E06K, S55A) (human) (UniProt Q14116)
# [21] = target: IL-18 polypeptide C145 (V11I, C38A, K53A, S55A, C76A, C127A) (human) (UniProt Q14116)
# [22] = target: IL-18 polypeptide of SEQ ID NO: 34 (E06K, K53A, S55A) (human) (UniProt Q14116)
# [23] = target: IL-18 polypeptide C155 (V11I, C38A, D40A, K53A, C76A, C127A) (human) (UniProt Q14116)
# [24] = target: IL-18 polypeptide C162 (K8E, V11I, C38A, C76A, Q103R, C127A) (human) (UniProt Q14116)
# [25] = target: IL-18 polypeptide C164 (V11I, C38A, S55H, C76A, C127A) (human) (UniProt Q14116)
# [26] = target: IL-18 polypeptide of SEQ ID NO: 55 (K53A, T63A, C38S, C68S, C76S, C127S, K70C) (human) (UniProt Q14116)
# [27] = target: IL-18 polypeptide of SEQ ID NO: 57 (E6K, C38S, K53A) (human) (UniProt Q14116)
# Chain of IL-18 polypeptide of SEQ ID NO: 57 (E6K, C38S, K53A) (human) (Q14116 other isoform, or with tags, fused parts or gaps C38S K53A C38S K53A): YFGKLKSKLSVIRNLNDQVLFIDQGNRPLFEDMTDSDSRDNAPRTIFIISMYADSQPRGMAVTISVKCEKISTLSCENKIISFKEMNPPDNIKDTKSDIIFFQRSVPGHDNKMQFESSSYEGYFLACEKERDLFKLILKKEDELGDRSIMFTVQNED
# Chain of IL-18 polypeptide of SEQ ID NO: 41 (K53A, S55A) (human) (Q14116 37-193 K89A/S91A): as the sequence (Q14116 other isoform, or with tags, fused parts or gaps C38S K53A C38S K53A) above, with K6E, S38C, S55A counted along it
# Chain of IL-18 polypeptide C164 (V11I, C38A, S55H, C76A, C127A) (human) (Q14116 37-193 V47I/C74A/S91H/C112A/C163A): as the sequence (Q14116 other isoform, or with tags, fused parts or gaps C38S K53A C38S K53A) above, with K6E, V11I, S38A, A53K, S55H, C76A, C127A counted along it
# Chain of IL-18 polypeptide C156 (V11I, C38A, N41A, K53A, C76A, C127A) (human) (Q14116 37-193 V47I/C74A/N77A/K89A/C112A/C163A): as the sequence (Q14116 other isoform, or with tags, fused parts or gaps C38S K53A C38S K53A) above, with K6E, V11I, S38A, N41A, C76A, C127A counted along it
# Chain of IL-18 polypeptide C162 (K8E, V11I, C38A, C76A, Q103R, C127A) (human) (Q14116 other isoform, or with tags, fused parts or gaps V11I C38A C76A Q103R C127A V11I C38A C76A Q103R C127A): as the sequence (Q14116 other isoform, or with tags, fused parts or gaps C38S K53A C38S K53A) above, with K6E, K8E, V11I, S38A, A53K, C76A, Q103R, C127A counted along it
# Chain of IL-18 polypeptide C153 (V11I, D37A, C38A, K53A, C76A, C127A) (human) (Q14116 37-193 V47I/D73A/C74A/K89A/C112A/C163A): as the sequence (Q14116 other isoform, or with tags, fused parts or gaps C38S K53A C38S K53A) above, with K6E, V11I, D37A, S38A, C76A, C127A counted along it
# Chain of IL-18 polypeptide C145 (V11I, C38A, K53A, S55A, C76A, C127A) (human) (Q14116 37-193 V47I/C74A/K89A/S91A/C112A/C163A): as the sequence (Q14116 other isoform, or with tags, fused parts or gaps C38S K53A C38S K53A) above, with K6E, V11I, S38A, S55A, C76A, C127A counted along it
# Chain of IL-18 polypeptide C144 (V11I, C38A, K53A, T63A, C76A, C127A) (human) (Q14116 37-193 V47I/C74A/K89A/T99A/C112A/C163A): as the sequence (Q14116 other isoform, or with tags, fused parts or gaps C38S K53A C38S K53A) above, with K6E, V11I, S38A, T63A, C76A, C127A counted along it
# Chain of IL-18 polypeptide of SEQ ID NO: 40 (E06K, S55A) (human) (Q14116 37-193 E42K/S91A): as the sequence (Q14116 other isoform, or with tags, fused parts or gaps C38S K53A C38S K53A) above, with S38C, A53K, S55A counted along it
# Chain of IL-18 polypeptide C155 (V11I, C38A, D40A, K53A, C76A, C127A) (human) (Q14116 37-193 V47I/C74A/D76A/K89A/C112A/C163A): as the sequence (Q14116 other isoform, or with tags, fused parts or gaps C38S K53A C38S K53A) above, with K6E, V11I, S38A, D40A, C76A, C127A counted along it
# Chain of IL-18 polypeptide of SEQ ID NO: 38 (E06K) (human) (Q14116 37-193 E42K): as the sequence (Q14116 other isoform, or with tags, fused parts or gaps C38S K53A C38S K53A) above, with S38C, A53K counted along it
# Chain of IL-18 polypeptide of SEQ ID NO: 47 (C38S, C68S, C76S, C127S) (human) (Q14116 37-193 C74S/C104S/C112S/C163S): as the sequence (Q14116 other isoform, or with tags, fused parts or gaps C38S K53A C38S K53A) above, with K6E, A53K, C68S, C76S, C127S counted along it
# Chain of IL-18 polypeptide of SEQ ID NO: 37 (S55A) (human) (Q14116 37-193 S91A): as the sequence (Q14116 other isoform, or with tags, fused parts or gaps C38S K53A C38S K53A) above, with K6E, S38C, A53K, S55A counted along it
# Chain of IL-18 polypeptide of SEQ ID NO: 34 (E06K, K53A, S55A) (human) (Q14116 37-193 E42K/K89A/S91A): as the sequence (Q14116 other isoform, or with tags, fused parts or gaps C38S K53A C38S K53A) above, with S38C, S55A counted along it
# Chain of IL-18 polypeptide C151 (V11I, D35A, C38A, K53A, C76A, C127A) (human) (Q14116 37-193 V47I/D71A/C74A/K89A/C112A/C163A): as the sequence (Q14116 other isoform, or with tags, fused parts or gaps C38S K53A C38S K53A) above, with K6E, V11I, D35A, S38A, C76A, C127A counted along it
# Chain of IL-18 polypeptide of SEQ ID NO: 46 (E06K, K53A, S55A, M51G) (human) (Q14116 37-193 E42K/M87G/K89A/S91A): as the sequence (Q14116 other isoform, or with tags, fused parts or gaps C38S K53A C38S K53A) above, with S38C, M51G, S55A counted along it
# Chain of IL-18 polypeptide of SEQ ID NO: 35 (Y01G, F02A, E06K, M51G, K53A, D54A, S55A, T63A) (human) (Q14116 37-193 Y37G/F38A/E42K/M87G/K89A/D90A/S91A/T99A): as the sequence (Q14116 other isoform, or with tags, fused parts or gaps C38S K53A C38S K53A) above, with Y1G, F2A, S38C, M51G, D54A, S55A, T63A counted along it
# Chain of IL-18 polypeptide of SEQ ID NO: 55 (K53A, T63A, C38S, C68S, C76S, C127S, K70C) (human) (Q14116 37-193 C74S/K89A/T99A/C104S/K106C/C112S/C163S): as the sequence (Q14116 other isoform, or with tags, fused parts or gaps C38S K53A C38S K53A) above, with K6E, T63A, C68S, K70C, C76S, C127S counted along it
# Chain of IL-18 polypeptide C150 (V11I, T34A, C38A, K53A, C76A, C127A) (human) (Q14116 37-193 V47I/T70A/C74A/K89A/C112A/C163A): as the sequence (Q14116 other isoform, or with tags, fused parts or gaps C38S K53A C38S K53A) above, with K6E, V11I, T34A, S38A, C76A, C127A counted along it
# Chain of IL-18 polypeptide of SEQ ID NO: 48 (C38S, C68S, C76S, C127S, K70C) (human) (Q14116 37-193 C74S/C104S/K106C/C112S/C163S): as the sequence (Q14116 other isoform, or with tags, fused parts or gaps C38S K53A C38S K53A) above, with K6E, A53K, C68S, K70C, C76S, C127S counted along it
# Chain of IL-18 polypeptide of SEQ ID NO: 5 (E6K, V11I, C38A, K53A, T63A, C68A, C76A, M86C, C127A) (human) (Q14116 other isoform, or with tags, fused parts or gaps with the stated changes): as the sequence (Q14116 other isoform, or with tags, fused parts or gaps C38S K53A C38S K53A) above, with V11I, S38A, T63A, C68A, C76A, M86C, C127A counted along it
# Chain of IL-18 polypeptide of SEQ ID NO: 4 (E6K, C38A, K53A, C68A, M86C) (human) (Q14116 other isoform, or with tags, fused parts or gaps C38A K53A C68A M86C C38A K53A C68A M86C): as the sequence (Q14116 other isoform, or with tags, fused parts or gaps C38S K53A C38S K53A) above, with S38A, C68A, M86C counted along it
# Chain of IL-18 polypeptide of SEQ ID NO: 42 (E06K, K53A, S55A, T63A) (human) (Q14116 37-193 E42K/K89A/S91A/T99A): as the sequence (Q14116 other isoform, or with tags, fused parts or gaps C38S K53A C38S K53A) above, with S38C, S55A, T63A counted along it
# Chain of IL-18 polypeptide C159 (V11I, C38A, K53A, C76A, H109A, C127A) (human) (Q14116 37-193 V47I/C74A/K89A/C112A/H145A/C163A): as the sequence (Q14116 other isoform, or with tags, fused parts or gaps C38S K53A C38S K53A) above, with K6E, V11I, S38A, C76A, H109A, C127A counted along it
# Chain of IL-18 polypeptide C158 (V11I, C38A, K53A, C76A, G108A, C127A) (human) (Q14116 37-193 V47I/C74A/K89A/C112A/G144A/C163A): as the sequence (Q14116 other isoform, or with tags, fused parts or gaps C38S K53A C38S K53A) above, with K6E, V11I, S38A, C76A, G108A, C127A counted along it
# Chain of IL-18 polypeptide C160 (V11I, C38A, K53A, C76A, D110A, C127A) (human) (Q14116 37-193 V47I/C74A/K89A/C112A/D146A/C163A): as the sequence (Q14116 other isoform, or with tags, fused parts or gaps C38S K53A C38S K53A) above, with K6E, V11I, S38A, C76A, D110A, C127A counted along it
# Chain of IL-18 polypeptide of SEQ ID NO: 36 (K53A) (human) (Q14116 37-193 K89A): as the sequence (Q14116 other isoform, or with tags, fused parts or gaps C38S K53A C38S K53A) above, with K6E, S38C counted along it
substance,measurement,setting,value
Fc-fused human IL-18 binding protein isoform a (IL-18BPa) (from UniProt O95998 31-194) (Fc fusion),IC50 of IL-18BPa inhibition of IFNγ induction in NK-92 cells,[1],0.114 nM
same,IC50 of IL-18BPa inhibition of IFNγ induction in NK-92 cells,[2],0.189 nM
same,IC50 of IL-18BPa inhibition of IFNγ induction in NK-92 cells,[3],62.4 nM
same,IC50 of IL-18BPa inhibition of IFNγ induction in NK-92 cells,[4],0.444 nM
same,IC50 of IL-18BPa inhibition of IFNγ induction in NK-92 cells,[5],7.85 nM
same,IC50 of IL-18BPa inhibition of IFNγ induction in NK-92 cells,[6],7.79 nM
same,IC50 of IL-18BPa inhibition of IFNγ induction in NK-92 cells,[7],4.46 nM
same,IC50 of IL-18BPa inhibition of IFNγ induction in NK-92 cells,[8],37.3 nM
same,IC50 of IL-18BPa inhibition of IFNγ induction in NK-92 cells,[9],1.81 nM
same,IC50 of IL-18BPa inhibition of IFNγ induction in NK-92 cells,[10],1060 nM
same,IC50 of IL-18BPa inhibition of IFNγ induction in NK-92 cells,[11],3.62 nM
same,IC50 of IL-18BPa inhibition of IFNγ induction in NK-92 cells,[12],27.3 nM
same,IC50 of IL-18BPa inhibition of IFNγ induction in NK-92 cells,[13],3.71 nM
same,IC50 of IL-18BPa inhibition of IFNγ induction in NK-92 cells,[14],6.08 nM
same,IC50 of IL-18BPa inhibition of IFNγ induction in NK-92 cells,[15],1.07 nM
same,IC50 of IL-18BPa inhibition of IFNγ induction in NK-92 cells,[16],> 55 nM
same,IC50 of IL-18BPa inhibition of IFNγ induction in NK-92 cells,[17],10.2 nM
same,IC50 of IL-18BPa inhibition of IFNγ induction in NK-92 cells,[18],396 nM
same,IC50 of IL-18BPa inhibition of IFNγ induction in NK-92 cells,[19],3.18 nM
same,IC50 of IL-18BPa inhibition of IFNγ induction in NK-92 cells,[20],15 nM
same,IC50 of IL-18BPa inhibition of IFNγ induction in NK-92 cells,[21],733 nM
same,IC50 of IL-18BPa inhibition of IFNγ induction in NK-92 cells,[22],229 nM
same,IC50 of IL-18BPa inhibition of IFNγ induction in NK-92 cells,[23],0.681 nM
same,IC50 of IL-18BPa inhibition of IFNγ induction in NK-92 cells,[24],0.823 nM
same,IC50 of IL-18BPa inhibition of IFNγ induction in NK-92 cells,[25],0.885 nM
same,IC50 of IL-18BPa inhibition of IFNγ induction in NK-92 cells,[26],> 1000 nM
same,IC50 of IL-18BPa inhibition of IFNγ induction in NK-92 cells,[27],1.62 nM
